Laboratory results reported in US20100284921A1.

Target: human polyomavirus (JC virus) T-antigen (JC virus (human polyomavirus))
Test: competition on T-antigen positive cells, 1 hour: 100-fold excess of unconjugated pAb416 against the ^125I 8 Ab/CLIO conjugate

## pAb416, a monoclonal antibody against T-antigen (IgG, not coupled to CLIO)
  percent decrease of binding and internalization of ^125I-Ab-CLIO: > 80%
